Results published in the supplement of paper PMC10567573.

B1: SPATS1 (parent)
chain: YPEQSKGFHKAGSMLPPVNFSIVP

Variants of: B1
Test: protein stability index of a GFP-peptide fusion (GPS, HEK-293T) (PSI 1-6); higher = more stable
Conditions: c terminus: a fixed tail appended
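Note: lentivirally expressed fusions sorted by FACS into six bins by GFP to DsRed ratio, PSI derived from sequencing read proportions per bin multiplied by bin number.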

For YPEQSKGFHKAGSMLPPVTFSIVP, which protein stability index is on record?
The protein stability index was 1.75.

With YPEQSKGFHKAGSMLPPVLFSIVP as the variant, how does the protein stability index read?
The protein stability index was 2.24.

For YPEQSKGFHKAGSMLPPVMFSIVP, which protein stability index is on record?
The protein stability index was 1.75.

For YPEQSKGFHKAGSMLPPVQFSIVP, which protein stability index is on record?
Its protein stability index is 1.87.

With YPEQSKGFHKAGSMLPPVPFSIVP as the variant, how does the protein stability index read?
Its protein stability index is 1.88.

For YPEQSKGFHKAGSMLPPVYFSIVP, which protein stability index is on record?
Its protein stability index is 2.26.

Which protein stability index does the source give for YPEQSKGFHKAGSMLPPVSFSIVP here?
Its protein stability index is 2.43.

Which protein stability index does the source give for YPEQSKGFHKAGSMLPPVDFSIVP here?
Its protein stability index is 1.97.

Which protein stability index does the source give for YPEQSKGFHKAGSMLPPVAFSIVP here?
The protein stability index was 2.17.

For YPEQSKGFHKAGSMLPPVVFSIVP, which protein stability index is on record?
The protein stability index was 2.07.

For YPEQSKGFHKAGSMLPPVEFSIVP, which protein stability index is on record?
The protein stability index was 1.91.

With YPEQSKGFHKAGSMLPPVRFSIVP as the variant, how does the protein stability index read?
The protein stability index was 1.85.

Which protein stability index does the source give for YPEQSKGFHKAGSMLPPVWFSIVP here?
Its protein stability index is 2.18.

Which protein stability index does the source give for YPEQSKGFHKAGSMLPPVIFSIVP here?
The protein stability index was 2.41.

With YPEQSKGFHKAGSMLPPVCFSIVP as the variant, how does the protein stability index read?
The protein stability index was 1.56.

For YPEQSKGFHKAGSMLPPVFFSIVP, which protein stability index is on record?
Its protein stability index is 2.48.

With YPEQSKGFHKAGSMLPPVKFSIVP as the variant, how does the protein stability index read?
The protein stability index was 1.82.

For YPEQSKGFHKAGSMLPPVHFSIVP, which protein stability index is on record?
Its protein stability index is 1.91.

Which protein stability index does the source give for YPEQSKGFHKAGSMLPPVNTSIVP here?
The protein stability index was 2.24.

With YPEQSKGFHKAGSMLPPVNLSIVP as the variant, how does the protein stability index read?
Its protein stability index is 1.97.

With YPEQSKGFHKAGSMLPPVNHSIVP as the variant, how does the protein stability index read?
The protein stability index was 2.19.

Which protein stability index does the source give for YPEQSKGFHKAGSMLPPVNESIVP here?
Its protein stability index is 2.13.

Which protein stability index does the source give for YPEQSKGFHKAGSMLPPVNQSIVP here?
Its protein stability index is 2.47.

With YPEQSKGFHKAGSMLPPVNASIVP as the variant, how does the protein stability index read?
Its protein stability index is 2.26.

Which protein stability index does the source give for YPEQSKGFHKAGSMLPPVNWSIVP here?
Its protein stability index is 1.57.

For YPEQSKGFHKAGSMLPPVNRSIVP, which protein stability index is on record?
The protein stability index was 2.23.

Which protein stability index does the source give for YPEQSKGFHKAGSMLPPVNVSIVP here?
The protein stability index was 2.88.

With YPEQSKGFHKAGSMLPPVNGSIVP as the variant, how does the protein stability index read?
The protein stability index was 1.71.

For YPEQSKGFHKAGSMLPPVNMSIVP, which protein stability index is on record?
Its protein stability index is 1.97.

Which protein stability index does the source give for YPEQSKGFHKAGSMLPPVNKSIVP here?
The protein stability index was 2.19.

With YPEQSKGFHKAGSMLPPVNCSIVP as the variant, how does the protein stability index read?
The protein stability index was 2.13.

For YPEQSKGFHKAGSMLPPVNISIVP, which protein stability index is on record?
The protein stability index was 1.73.

With YPEQSKGFHKAGSMLPPVNNSIVP as the variant, how does the protein stability index read?
The protein stability index was 2.22.

For YPEQSKGFHKAGSMLPPVNSSIVP, which protein stability index is on record?
The protein stability index was 2.14.

With YPEQSKGFHKAGSMLPPVNDSIVP as the variant, how does the protein stability index read?
The protein stability index was 2.39.

Which protein stability index does the source give for YPEQSKGFHKAGSMLPPVNPSIVP here?
Its protein stability index is 2.66.

With YPEQSKGFHKAGSMLPPVNYSIVP as the variant, how does the protein stability index read?
Its protein stability index is 2.03.

For YPEQSKGFHKAGSGLPPVNFSIVP, which protein stability index is on record?
Its protein stability index is 1.97.

For YPEQSKGFHKAGSALPPVNFSIVP, which protein stability index is on record?
Its protein stability index is 2.13.

Which protein stability index does the source give for YPEQSKGFHKAGSILPPVNFSIVP here?
The protein stability index was 1.83.

With YPEQSKGFHKAGSRLPPVNFSIVP as the variant, how does the protein stability index read?
The protein stability index was 2.8.

With YPEQSKGFHKAGSWLPPVNFSIVP as the variant, how does the protein stability index read?
Its protein stability index is 1.91.

For YPEQSKGFHKAGSKLPPVNFSIVP, which protein stability index is on record?
The protein stability index was 2.47.

For YPEQSKGFHKAGSELPPVNFSIVP, which protein stability index is on record?
The protein stability index was 1.88.

With YPEQSKGFHKAGSYLPPVNFSIVP as the variant, how does the protein stability index read?
The protein stability index was 2.

For YPEQSKGFHKAGSSLPPVNFSIVP, which protein stability index is on record?
The protein stability index was 2.17.

For YPEQSKGFHKAGSLLPPVNFSIVP, which protein stability index is on record?
Its protein stability index is 1.74.

Which protein stability index does the source give for YPEQSKGFHKAGSDLPPVNFSIVP here?
The protein stability index was 1.96.

With YPEQSKGFHKAGSPLPPVNFSIVP as the variant, how does the protein stability index read?
The protein stability index was 2.07.

For YPEQSKGFHKAGSFLPPVNFSIVP, which protein stability index is on record?
The protein stability index was 2.28.

With YPEQSKGFHKAGSNLPPVNFSIVP as the variant, how does the protein stability index read?
Its protein stability index is 2.37.

With YPEQSKGFHKAGSCLPPVNFSIVP as the variant, how does the protein stability index read?
The protein stability index was 2.25.

Which protein stability index does the source give for YPEQSKGFHKAGSHLPPVNFSIVP here?
The protein stability index was 1.87.

Which protein stability index does the source give for YPEQSKGFHKAGSTLPPVNFSIVP here?
Its protein stability index is 1.99.

With YPEQSKGFHKAGSQLPPVNFSIVP as the variant, how does the protein stability index read?
The protein stability index was 2.08.

For YPEQSKGFHKAGSVLPPVNFSIVP, which protein stability index is on record?
The protein stability index was 2.03.

Which protein stability index does the source give for YPEQSKGFHKAGSMLPHVNFSIVP here?
The protein stability index was 2.75.

Which protein stability index does the source give for YPEQSKGFHKAGSMLPSVNFSIVP here?
Its protein stability index is 1.94.

For YPEQSKGFHKAGSMLPCVNFSIVP, which protein stability index is on record?
The protein stability index was 1.41.

For YPEQSKGFHKAGSMLPRVNFSIVP, which protein stability index is on record?
The protein stability index was 1.61.

With YPEQSKGFHKAGSMLPQVNFSIVP as the variant, how does the protein stability index read?
Its protein stability index is 1.76.

For YPEQSKGFHKAGSMLPKVNFSIVP, which protein stability index is on record?
The protein stability index was 1.59.

Which protein stability index does the source give for YPEQSKGFHKAGSMLPEVNFSIVP here?
The protein stability index was 1.85.

Which protein stability index does the source give for YPEQSKGFHKAGSMLPLVNFSIVP here?
Its protein stability index is 1.62.

Which protein stability index does the source give for YPEQSKGFHKAGSMLPYVNFSIVP here?
Its protein stability index is 1.8.

For YPEQSKGFHKAGSMLPTVNFSIVP, which protein stability index is on record?
The protein stability index was 1.59.

For YPEQSKGFHKAGSMLPNVNFSIVP, which protein stability index is on record?
Its protein stability index is 1.9.

With YPEQSKGFHKAGSMLPFVNFSIVP as the variant, how does the protein stability index read?
The protein stability index was 1.58.

For YPEQSKGFHKAGSMLPVVNFSIVP, which protein stability index is on record?
The protein stability index was 2.22.

For YPEQSKGFHKAGSMLPDVNFSIVP, which protein stability index is on record?
The protein stability index was 1.94.

With YPEQSKGFHKAGSMLPIVNFSIVP as the variant, how does the protein stability index read?
Its protein stability index is 1.75.

For YPEQSKGFHKAGSMLPAVNFSIVP, which protein stability index is on record?
Its protein stability index is 2.63.

Which protein stability index does the source give for YPEQSKGFHKAGSMLPWVNFSIVP here?
Its protein stability index is 2.59.

With YPEQSKGFHKAGSMLPMVNFSIVP as the variant, how does the protein stability index read?
Its protein stability index is 1.42.

Which protein stability index does the source give for YPEQSKGFHKAGSMLPGVNFSIVP here?
Its protein stability index is 1.83.

For YPEQSKGFHKAGSMLQPVNFSIVP, which protein stability index is on record?
The protein stability index was 2.02.

Which protein stability index does the source give for YPEQSKGFHKAGSMLDPVNFSIVP here?
The protein stability index was 1.94.

Which protein stability index does the source give for YPEQSKGFHKAGSMLTPVNFSIVP here?
The protein stability index was 1.9.

For YPEQSKGFHKAGSMLHPVNFSIVP, which protein stability index is on record?
Its protein stability index is 1.44.

With YPEQSKGFHKAGSMLSPVNFSIVP as the variant, how does the protein stability index read?
Its protein stability index is 1.43.

With YPEQSKGFHKAGSMLIPVNFSIVP as the variant, how does the protein stability index read?
Its protein stability index is 1.54.

For YPEQSKGFHKAGSMLAPVNFSIVP, which protein stability index is on record?
The protein stability index was 1.95.

For YPEQSKGFHKAGSMLGPVNFSIVP, which protein stability index is on record?
Its protein stability index is 1.65.

For YPEQSKGFHKAGSMLFPVNFSIVP, which protein stability index is on record?
Its protein stability index is 1.98.

For YPEQSKGFHKAGSMLVPVNFSIVP, which protein stability index is on record?
Its protein stability index is 2.16.

With YPEQSKGFHKAGSMLNPVNFSIVP as the variant, how does the protein stability index read?
The protein stability index was 1.65.

Which protein stability index does the source give for YPEQSKGFHKAGSMLYPVNFSIVP here?
Its protein stability index is 1.78.

With YPEQSKGFHKAGSMLCPVNFSIVP as the variant, how does the protein stability index read?
The protein stability index was 1.97.

Which protein stability index does the source give for YPEQSKGFHKAGSMLKPVNFSIVP here?
Its protein stability index is 2.01.

With YPEQSKGFHKAGSMLEPVNFSIVP as the variant, how does the protein stability index read?
The protein stability index was 1.95.

With YPEQSKGFHKAGSMLWPVNFSIVP as the variant, how does the protein stability index read?
The protein stability index was 1.96.

With YPEQSKGFHKAGSMLLPVNFSIVP as the variant, how does the protein stability index read?
Its protein stability index is 1.76.

For YPEQSKGFHKAGSMLRPVNFSIVP, which protein stability index is on record?
Its protein stability index is 1.99.

Which protein stability index does the source give for YPEQSKGFHKAGSMLMPVNFSIVP here?
The protein stability index was 1.52.
